From US20220348661A1 (HARBOUR BIOMED SHANGHAI, published 2022)
Residue numbers refer to the chain shown, from its start.

B1: PR000511 (antibody, human IgG1, lambda, L234A L235A, V domains shown)
VH: EVQLLESGGGLVQPGGSLRLSCAASGFTFNTYAMNWVRQAPGKGLEWVSRIRSKYNNYATYYADSVKDRFTISRDDSKSTLYLQMNSLRAEDTAVYYCVRHGNFGNSYVSWFAYWGQGTLVTVSS
VL: QAVVTQEPSLTVSPGGTVTLTCRSSTGAVTTSNYANWVQQKPGQAPRGLIGGTNKRAPWTPARFSGSLLGDKAALTLLGAQPEDEAEYFCALWYSNLWVFGGGTKLTVLG
notes: humanized SP34 variant, IgG1 LALA; also called VH3231/VL7461 IgG
B2: PR000513 (antibody, human IgG1, kappa, L234A L235A, V domains shown)
VH: B1 VH
VL: DAQMTQSPSSLSASVGDRVTITCRSSTGAVTTSNYANWVQQKPGKAPKGLIGGTNKRAPGVPSRFSGSLSGDDATLTISSLQPEDFATYFCALWYSNLWVFGGGTKVEIKR
notes: humanized SP34 variant, IgG1 LALA; also called VH3231/VK1393 IgG
B3: PR000512 (antibody, human IgG1, lambda, L234A L235A, V domains shown)
VH: B1 VH with L5V, R19K, P41S, S49G, R89K, A90T
VL: B1 VL
notes: humanized SP34 variant, IgG1 LALA; also called VH3731/VL7461 IgG
B4: PR001849 (antibody, human IgG1, lambda, L234A L235A, V domains shown)
VH: B1 VH with L5V, R19K, N30S, P41S, S49G, R89K, A90T
VL: B1 VL
notes: humanized SP34 variant, IgG1 LALAPG; also called VH3732/VL7461 IgG
B5: PR002836 (antibody, human IgG1, lambda, L234A L235A, V domains shown)
VH: B1 VH with L5V, R19K, N30S, P41S, S49G, R89K, A90T, V99T
VL: B1 VL
notes: humanized SP34 variant, IgG1 LALAPG; also called VH3733/VL7461 IgG
B6: PR004616 (antibody, human IgG1, lambda, L234A L235A, V domains shown)
VH: B1 VH with N30S, D76N, S79N, V99A, R100K
VL: B1 VL
notes: humanized SP34 variant, IgG1 LALA; also called VH3233/VL7461 IgG
B7: PR002835 (antibody, human IgG1, lambda, L234A L235A, V domains shown)
VH: B1 VH with N30S, D76N, V99A
VL: B1 VL
notes: humanized SP34 variant, IgG1 LALAPG; also called VH3236/VL7461 IgG
B8: PR001848 (antibody, human IgG1, lambda, L234A L235A, V domains shown)
VH: B1 VH with N30S
VL: B1 VL
notes: humanized SP34 variant, IgG1 LALAPG; also called VH3232/VL7461 IgG
B9: PR002837 (antibody, human IgG1, lambda, L234A L235A, V domains shown)
VH: B1 VH with L5V, R19K, N30S, P41S, S49G, S79N, L81A, R89K, A90T
VL: B1 VL
notes: humanized SP34 variant, IgG1 LALAPG; also called VH3734/VL7461 IgG
B10: PR002834 (antibody, human IgG1, lambda, L234A L235A, V domains shown)
VH: B1 VH with N30S, V99A, R100K
VL: B1 VL
notes: humanized SP34 variant, IgG1 LALAPG; also called VH3235/VL7461 IgG
B11: PR000514 (antibody, human IgG1, kappa, L234A L235A, V domains shown)
VH: B1 VH with L5V, R19K, P41S, S49G, R89K, A90T
VL: B2 VL
notes: humanized SP34 variant, IgG1 LALA; also called VH3731/VK1393 IgG
B12: PR002833 (antibody, human IgG1, lambda, L234A L235A, V domains shown)
VH: B1 VH with N30S, D76N, S79N
VL: B1 VL
notes: humanized SP34 variant, IgG1 LALAPG; also called VH3234/VL7461 IgG
B13: PR002472 (antibody, human IgG1, kappa, L234A L235A, V domains shown)
VH: B1 VH with D76N, S79N, V99A, R100K
VL: B2 VL
notes: humanized SP34 variant, IgG1 LALA; very low expression yield; also called VH3230/VK1393 IgG
B14: PR003886 (antibody, human IgG1, lambda, L234A L235A, V domains shown)
VH: B1 VH with L5V, R19K, N30S, P41S, S49G, S79N, L81A, R89K, A90T, V99T
VL: B1 VL
notes: humanized SP34 variant, IgG1 LALA; also called VH3735/VL7461 IgG
B15: PR002469 (antibody, human IgG1, lambda, L234A L235A, V domains shown)
VH: B1 VH with D76N, S79N, V99A, R100K
VL: B1 VL
notes: humanized SP34 variant, IgG1 LALA; also called VH3230/VL7461 IgG
B16: PR002742 (antibody, human IgG1, lambda, L234A L235A, V domains shown)
VH: B1 VH with L5V, R19K, P41S, S49G, S79N, L81A, R89K, A90T, V99T
VL: B1 VL
notes: humanized SP34 variant, IgG1 LALA; also called VH3730/VL7461 IgG

What follows are binders tested against T1, human CD3 (human, UniProt P07766 23-207; P09693 23-182; P04234 22-171; P20963 22-164) (assay: flow cytometry on human pan-T cells; MFI at 7.4 or 10 µg/ml relative to PR000260).
T1 construct: whole, on cells; SP34 is described as an anti-human CD3e antibody; also called human TCR/CD3 complex; CD3 on human pan-T cells
Excerpt: The flow cytometryFACS was used to analyse the binding of the CD3 antibody to CD3-expressing cells, where the CD3-expressing cells could be: CHOK1 cells overexpressing human CD3 or HEK 293 cells (plasmids encoding the ORF of γ, δ, ε, and ζ chains of human-derived CD3 and plasmids encoding the ORF of α and β chains of human TCR were co-transfected with host cells CHOK1 (ATCC, CCL-61) or HEK293 (ATCC, CRL-1573) to construct stable cell lines expressing the structure of the human TCR/CD3 complex); CHOK1 or HEK293 cells overexpressing cynomolgus monkey CD3; human pan-T cells (isolated with the human pan-T cell isolation kit (Miltenyi, #130-096-535) from PBMC); cynomolgus monkey pan-T cells. Specifically, the collected cells were washed twice with PBS containing 2% FBS (FACS buffer), and resuspended with FACS buffer, divided into 96 well plates with 1×10⁵ cells per well, centrifuged at 500 g for 5 minutes. The supernatant was discarded, and 100 μl of pre-gradient diluted CD3 antibody was added, then incubating for 1 hour at room temperature and washing twice with FACS buffer. The cells were resuspended with FACS buffer diluted with secondary antibody Alexa Fluor 488 AffiniPure Goat Anti-Human IgG, Fcγ fragment specific (Jackson ImmunoResearch, #109-545-098), then incubated at room temperature in the dark for 30 minutes. The cells were washed twice with FACS buffer, and resuspended with 200 μl FACS buffer. The fluorescent luminescence signal value were read by flow cytometry (BD FACS CANTOII or ACEA NovoCyte), and the resulted data were processed and analyzed by software FlowJo v10 (FlowJo, LLC). The software GraphPad Prism 8 was used for data processing and graphical analysis, and parameters such as binding curves and EC50 values can be obtained by four-parameter nonlinear fitting.
FIG. 7(A) to (G) show the binding ability of the CD3 antibodies obtained in the Example 4.2 (including PR000260 and its mutants) to human pan-T cells, respectively. The fluorescence intensity MFI of the CD3 antibody binding to human pan-T cells and the relative ratio relative to the initial antibody PR000260 were calculated when the antibody concentration was 7.4 or 10 μg/ml.

T1 sequence (P07766 23-207, chain 1 of 4): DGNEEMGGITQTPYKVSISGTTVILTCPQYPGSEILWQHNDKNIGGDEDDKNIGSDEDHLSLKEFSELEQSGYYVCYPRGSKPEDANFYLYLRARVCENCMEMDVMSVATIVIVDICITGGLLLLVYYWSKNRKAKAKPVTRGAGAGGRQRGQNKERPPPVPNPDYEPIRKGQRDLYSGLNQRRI
T1 sequence (P09693 23-182, chain 2 of 4): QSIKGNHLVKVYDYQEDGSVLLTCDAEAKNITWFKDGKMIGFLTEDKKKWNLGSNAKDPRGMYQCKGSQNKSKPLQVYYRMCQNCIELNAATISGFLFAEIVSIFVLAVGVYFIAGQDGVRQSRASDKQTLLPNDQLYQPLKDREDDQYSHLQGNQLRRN
T1 sequence (P04234 22-171, chain 3 of 4): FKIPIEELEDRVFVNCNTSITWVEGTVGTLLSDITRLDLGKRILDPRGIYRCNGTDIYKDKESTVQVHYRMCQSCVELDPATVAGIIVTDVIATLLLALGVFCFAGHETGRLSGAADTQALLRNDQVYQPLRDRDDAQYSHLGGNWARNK
T1 sequence (P20963 22-164, chain 4 of 4): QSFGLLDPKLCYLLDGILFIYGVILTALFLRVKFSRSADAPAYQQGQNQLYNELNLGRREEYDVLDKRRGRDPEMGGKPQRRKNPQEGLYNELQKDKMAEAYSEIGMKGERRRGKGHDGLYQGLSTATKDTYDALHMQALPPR

Binder | binding result
B1 | binds
B2 | binds
B3 | binds
B4 | binds
B5 | binds
B6 | binds
B7 | binds
B8 | binds
B9 | binds
B10 | binds
B11 | binds
B12 | binds
B13 | binds
B14 | binds
B15 | binds
B16 | binds
